Source: patent publication US20040229298A1
Values joined by “and” are separate entries in the source; they are usually repeats but may differ in a detail not shown here. Equal values may be shown once. Ends that are not written are not given here.

Key:
Test in all cases: G assay ELISA, 10 uM biotin peptide on anti-GST-captured GST-PDZ
[1] = molecular target: GST-INADL PDZ domain 4 (human)
[2] = molecular target: GST-EBP50 PDZ domain 1, clone #167.2 (human)
[3] = molecular target: GST-MUPP1 PDZ domain 13 (human)
[4] = molecular target: GST-KIAA0147 PDZ domain 4 (human)
[5] = molecular target: GST-ERBIN PDZ domain 1 (human)
[6] = molecular target: GST-DLG1 PDZ domain 3 (human)
[7] = molecular target: GST-APXL1 PDZ domain 1 (human)
[8] = molecular target: GST-MAGI 1 PDZ domain 4 (human)
[9] = molecular target: GST-INADL PDZ domain 8 (human)
[10] = molecular target: GST-KIAA0545 PDZ domain 1 (human)
[11] = molecular target: GST-Shank 3 PDZ domain 1 (human)
[12] = molecular target: GST-EBP50 PDZ domain 1, clone #311.1 (human)
[13] = molecular target: GST-NSP PDZ domain 1, clone #42.5 (human)
[14] = molecular target: GST-MAGI 1 PDZ domain 3 (human)
[15] = molecular target: GST-Shroom PDZ domain 1 (human)
[16] = molecular target: GST-FLJ12615 PDZ domain 1 (human)
[17] = molecular target: GST-X-11 beta PDZ domain 1 (human)
[18] = molecular target: GST-AF6 PDZ domain 1 (human)
[19] = molecular target: GST-KIAA0973 PDZ domain 1, clone #148.5 (human)
[20] = molecular target: GST-PAR3 PDZ domain 3, clone #182.1 (human)
[21] = molecular target: GST-Numb BP PDZ domain 1 (human)
[22] = molecular target: GST-CARD14 PDZ domain 1 (human)
[23] = molecular target: GST-ZO-2 PDZ domain 1 (human)
[24] = molecular target: GST-ZO-2 PDZ domain 2 (human)
[25] = molecular target: GST-GTPase PDZ domain 1 (human)
[26] = molecular target: GST-KIAA0147 PDZ domain 2 (human)
[27] = molecular target: GST-FLJ00011 PDZ domain 1 (human)

B1: HPV16 E6 C-terminal PDZ ligand peptide (20 mer, biotinylated), P03126 139-158 (peptide)
peptide: WTGRCMSCCRSSRTRRETQL
modifications: not fully specified; cysteine pairing not given here
[1]
  Ave OD: 0.357 A450 nm
  OD S/N (ratio to GST only well): 2.15
[2]
  Ave OD: 0.381 A450 nm and 0.355 A450 nm
  OD S/N (ratio to GST only well): 1.94 and 2.28
[3]
  Ave OD: 0.435 A450 nm and 0.411 A450 nm
  OD S/N (ratio to GST only well): 1.56 and 1.75
[4]
  Ave OD: 0.38 A450 nm
  OD S/N (ratio to GST only well): 2.34
[5]
  Ave OD: 0.36 A450 nm and 0.342 A450 nm
  OD S/N (ratio to GST only well): 1.82 and 1.3
[6]
  Ave OD: 0.398 A450 nm
  OD S/N (ratio to GST only well): 2.45
[7]
  Ave OD: 0.461 A450 nm
  OD S/N (ratio to GST only well): 3.14
[8]
  Ave OD: 0.395 A450 nm
  OD S/N (ratio to GST only well): 1.2
[9]
  Ave OD: 0.388 A450 nm
  OD S/N (ratio to GST only well): 1.58
[10]
  Ave OD: 0.44 A450 nm
  OD S/N (ratio to GST only well): 3.96
[11]
  Ave OD: 0.396 A450 nm
  OD S/N (ratio to GST only well): 2.61
[12]
  Ave OD: 0.432 A450 nm
  OD S/N (ratio to GST only well): 2.05
[13]
  Ave OD: 0.416 A450 nm
  OD S/N (ratio to GST only well): 1.95
[14]
  Ave OD: 0.354 A450 nm
  OD S/N (ratio to GST only well): 1.46
[15]
  Ave OD: 0.361 A450 nm
  OD S/N (ratio to GST only well): 3.25
[16]
  Ave OD: 0.461 A450 nm
  OD S/N (ratio to GST only well): 2.24
[17]
  Ave OD: 0.352 A450 nm
  OD S/N (ratio to GST only well): 2.02
[18]
  Ave OD: 0.444 A450 nm
  OD S/N (ratio to GST only well): 1.8
[19]
  Ave OD: 0.378 A450 nm
  OD S/N (ratio to GST only well): 1.68
[20]
  Ave OD: 0.445 A450 nm
  OD S/N (ratio to GST only well): 2.07
[21]
  Ave OD: 0.352 A450 nm
  OD S/N (ratio to GST only well): 3.17
[22]
  Ave OD: 0.342 A450 nm
  OD S/N (ratio to GST only well): 1.52
[23]
  Ave OD: 0.342 A450 nm
  OD S/N (ratio to GST only well): 2.11
[24]
  Ave OD: 0.356 A450 nm
  OD S/N (ratio to GST only well): 2.15
[25]
  Ave OD: 0.35 A450 nm
  OD S/N (ratio to GST only well): 1.12
[26]
  Ave OD: 0.374 A450 nm
  OD S/N (ratio to GST only well): 2.46
[27]
  Ave OD: 0.423 A450 nm
  OD S/N (ratio to GST only well): 2.9
